# Source: publication PMC3618186, “Dynein and Dynactin Leverage Their Bivalent Character to Form a High-Affinity Interaction” (PLoS ONE, 2013)
# B1: dynactin p150^Glued coiled-coil 1B (CC1B), residues 381–530 (domain or fragment, R. norvegicus, UniProt P28023 381-530, looked up)
# chain: SSEKQEHVKLQKLMEKKNQELEVVRQQRERLQEELSQAESTIDELKEQVDAALGAEEMVEMLTDRNLNLEEKVRELRETVGDLEAMNEMNDELQENARETELELREQLDMAGARVREAQKRVEAAQETVADYQQTIKKYRQLTAHLQDVN
# notes: also called p150^Glued CC1B; source: E. coli BL21 Star (DE3), purified (Ni-NTA, Ulp1 cleavage, HiTrap Q XL, Superdex 75); not shown: His6, N-terminal, cleaved; SMT3 (S. cerevisiae SUMO), N-terminal, cleaved
# B2: S. cerevisiae dynein intermediate chain Pac11, residues 1–86, wild type (domain or fragment, UniProt P40960 1-86, looked up)
# chain: MERLKQLEEKRRQLKELRERRKQASLFPGSETMGHHPTEVHAKATMVSVSVQTDMEEGSKIQEPQSAYLRRKEVITYDKGIQTDQI
# notes: S. cerevisiae dynein intermediate chain Pac11, residues 1-86; Cloned in pGEX 6P-3; also called wt-Pac11^1–86; Pac11 1–86; source: E. coli BL21 Star (DE3), purified (Glutathione Sepharose 4B, precision protease, Superdex 75)
# B3: p150^Glued CC2 (residues 928–1049) (domain or fragment, rat (numbering stated as rat, p-0002), UniProt P28023 928-1049, looked up)
# chain: AALRAEITDAEGLGLKLEDRETVIKELKKSLKIKGEELSEANVRLSLLEKKLDSAAKDADERIEKVQTRLEETQTLLRKKEKEFEETMDALQADIDQLEAEKTELKQRLNSQSKRTIEGLRG
# notes: Unpublished observation of the authors
# B4: dynactin p150^Glued coiled-coil 1A (CC1A), residues 204–348 (domain or fragment, R. norvegicus, UniProt P28023 204-348, looked up)
# chain: PGAAPPLPSPSKEEEGLRDQVRDLEEKLETLRLKRSEDKAKLKELEKHKIQLEQVQEWKSKMQEQQADLQRRLKEAKEAKEALEAKERYMEEMADTADAIEMATLDKEMAEERAESLQQEVEALKERVDELTTDLEILKAEIEEK
# notes: R. norvegicus dynactin p150Glued, residues 204-348; Dimer at 4°C by sedimentation equilibrium; source: E. coli BL21 Star (DE3), purified (Ni-NTA, Ulp1 cleavage, HiTrap Q XL, Superdex 75); not shown: His6, N-terminal, cleaved; SMT3 (S. cerevisiae SUMO), N-terminal, cleaved
# What was measured:
# [1] = target: the molecule itself; test: AUC; sedimentation equilibrium of the p150Glued fragments alone, 4°C, 1x PBS, 1 mM TCEP; monomer-dimer model (dimer to monomers)
# [2] = target: B1; test: native gel or EMSA; native PAGE; purified proteins incubated at 25°C for five minutes in equimolar or two fold molar excess; 12% gels with a stacking gel at pH 7.4 or 8–25% gradient gels; conditions: both partners purified
# [3] = target: the molecule itself; test: not stated; unpublished observation
Binder,Kd [1] [nM],stoichiometry N [1],binding result [2],stoichiometry N [3]
B1,< 60,2,,
B2,,,binds,
B3,,,,2
B4,< 40,2,,
